Experimental data from PMC11919738, “Mechanism for Vipp1 spiral formation, ring biogenesis, and membrane repair” (Nature Structural & Molecular Biology, 2024).

B1: Vipp1Δα6_(1–219) (Vipp1 with the C-terminal domain truncated) (domain or fragment, Nostoc punctiforme, UniProt B2J6D9 1-219, looked up)
chain: MGLFDRIKRVVSSNLNDLVNKAEDPEKMLEQAILEMQEDLVQLRQGVAQAIAAQKRSEKQYNDAQNEINKWQRNAQLALQKGDENLARQALERKKTYTDTSAALKASLDTQSTQVETLKRNLIQLESKISEAKTKKEMLKARITTAKAQEQLQGMVRGMNTSSAMSAFERMEEKVLMQESRAQALGELAGADLETQFAQLEGGSDVDDELAALKAQMLP
notes: model built for amino acids 1-217; also called Vipp1_(Δα6_L2); Vipp1_(Δα6_L3); source: E. coli C43 (DE3) with pspA gene knockout, purified (amylose resin, TEV, Ni-NTA, SEC); not shown: His6, N-terminal, cleaved; MBP, N-terminal, cleaved
B2: Vipp1 (vesicle-inducing protein in plastids 1) from Nostoc punctiforme (natural protein, UniProt B2J6D9 1-258, looked up)
chain: MGLFDRIKRVVSSNLNDLVNKAEDPEKMLEQAILEMQEDLVQLRQGVAQAIAAQKRSEKQYNDAQNEINKWQRNAQLALQKGDENLARQALERKKTYTDTSAALKASLDTQSTQVETLKRNLIQLESKISEAKTKKEMLKARITTAKAQEQLQGMVRGMNTSSAMSAFERMEEKVLMQESRAQALGELAGADLETQFAQLEGGSDVDDELAALKAQMLPPATPVTQAQLPPQQETTPAKSNEVVDAELDSLRKQLDQL
notes: Vipp1, Nostoc punctiforme, UniProt B2J6D9; model built for amino acids 1-214 in Vipp1L1; Forms polymers (helical filaments, rings, sheets, spirals); the number of subunits is not fixed; RingsHS are the same protein purified with 50 mM NaCl in the SEC buffer; also called IM30; native Vipp1; source: E. coli C43 (DE3) with pspA gene knockout, purified (amylose resin, TEV, Ni-NTA, SEC); not shown: …
B3: Vipp1-F197K/L200K (Vipp1 interface 3 mutant) (natural protein, Nostoc punctiforme, UniProt B2J6D9 1-258, looked up)
chain: MGLFDRIKRVVSSNLNDLVNKAEDPEKMLEQAILEMQEDLVQLRQGVAQAIAAQKRSEKQYNDAQNEINKWQRNAQLALQKGDENLARQALERKKTYTDTSAALKASLDTQSTQVETLKRNLIQLESKISEAKTKKEMLKARITTAKAQEQLQGMVRGMNTSSAMSAFERMEEKVLMQESRAQALGELAGADLETQKAQKEGGSDVDDELAALKAQMLPPATPVTQAQLPPQQETTPAKSNEVVDAELDSLRKQLDQL
notes: Vipp1, Nostoc punctiforme, UniProt B2J6D9, with F197K and L200K; Co-purified with E. coli membrane (lipid bilayer in the filament lumen); source: E. coli C43 (DE3) with pspA gene knockout, purified (amylose resin, TEV, Ni-NTA, SEC); not shown: His6, N-terminal, cleaved; MBP, N-terminal, cleaved

Target: the molecule itself
Assay: cryo-EM structure; helical filaments of purified protein, 60 µM, low-salt SEC buffer, helical reconstruction

Binding result, binds:
B1
B2
B3
